From patent US20140037642A1 (Amgen, published 2014) come the findings set out here.

One experiment addresses T1, hu INSR(ECD)-muIgG1Fc (human; mouse, Glycosylated. 87% of the preparation was cleaved between the alpha and beta chains (RKRR site), which stay disulfide-linked. Dimer through the receptor and the murine Fc.).
T1 construct: 87% processed into α and β chains; also called INSR(ECD)-muFc; INSR-mFc
Kind of experiment: phage Fab ELISA, plate coated with INSR-mFc at 5 µg/ml. The method, then:
(§1) In 96-well 2-ml deep-well blocks, 480 μl/well 2xYT-CG broth was inoculated with 20 μl of overnight cultures of the individual clones, then incubated at 37° C., 300 rpm for 3 hours. To each well, 50 μl of 1:3 diluted M13KO7 helper phage were added to infect the cells. The block was incubated at 37° C. without shaking for 30 minutes, and then shaken gently for another 30 minutes at 150 rpm. The block was centrifuged at 3600 rpm for 20 minutes to pellet the infected cells. The cell pellet in each well was suspended into 480 μl of 2xYT-CK (2xYT broth containing 100 μg/ml carbenicillin and 40 μg/ml kanamycin), and incubated at 30° C. overnight for about 20 hours. The cell debris was separated by centrifugation at 3600 rpm for 20 minutes. The rescued phage supernatant was used in the phage ELISA to check for IGF-1R-specific, INSR-cross reactive, or mouse Fc binding of individual clones.
(§2) The coated plates were washed 3× with 300 μl/well of PBS. The washed plates were blocked with 300 μl/well 2% MPBS at room temperature for one hour. Meanwhile, rescued phages of individual clones were pre-blocked by mixing 170 μl of rescued phage with 170 μl of 4% MPBS. The blocked plates were washed 5× with 300 μl/well TBST (TBS: 10 mM Tris-HCl, pH 7.5, 1 mM EDTA, 150 mM NaCl; Tween-20. 0.1%). 100 μl/well of pre-blocked phage dilutions were distributed to each set of coated plate, which were incubated at room temperature on a rocker for 90 minutes. The plates were washed 5× with 300 μl/well TBST. 100 μl/well of anti-M13-HRP in 2% MPBS (1:3000 dilution, catalog number 27-9421-01, Amersham Pharmacia Biotech) were distributed, and plates were incubated at room temperature on rocker for one hour. The plates were washed 5× with 300 μl/well TBST. 100 μl/well of the substrate 1-Step™ ABTS (Pierce Biotechnology, Rockford, Ill., catalog number 37615) were added. Plates were incubated for one hour. OD₄₀₅ was measured for signal detection.
In general terms: In an ELISA, binding on a coated surface is turned into a signal by an enzyme label.

For experiment [1], the target named is T2, hu IGF-1R(ECD)-C3-muIgG1Fc (human; mouse, Glycosylated. 60% of the preparation was cleaved between the alpha and beta chains (RKRR, mature positions 708-711), which stay disulfide-linked; 40% was unprocessed. Dimer through the …).
T2 construct: 60% of the product was processed into α and β chains, 40% unprocessed; also called IGF-1R(ECD)-C3-muFc; IGF-1R-C3-muFc
Kind of experiment: phage Fab ELISA, plate coated with IGF-1R-C3-mFc at 5 µg/ml. The method, then: as §1, §2

Where a chain is given by its changes, count along the chain named.

B1: L31H31 phage-displayed Fab (Fab, V domains shown)
VH: EVQLVQSGGGVVQPGRSLRLSCAASGFTFSSYGMHWVRQAPGKGLEWVAVISYDGSNKYYADSVKGRFTISRDNSKNTLYLQMNSLRAEDTAVYYCAKAYSSGWYDYYGMDVWGQGTTVTVSS
VL: DIQLTQSPSSLSASVGDRVTITCRSSQGIGYFLNWYQQEPGKAPKILISAASTLQSGVPSRFSGSGSGTDFTLSINNLQPADFATYYCQQSHSPPYTFGQGTKVEIK
Turning to B1, the binding result with hu INSR(ECD)-muIgG1Fc is on record as “no binding”; in experiment [1] it was “binds”.

B2: L27H27 phage-displayed Fab (Fab, V domains shown)
VH: EVQLVQSGGGVVQPGTSLRLSCAASGFSFRSHGMHWVRQAPGKGLEWVAVISYDGSNKYYADSVKGRFTISRDNSKNTLYLQMNSLRAEDTAVYYCATIGPGGFDYWGQGTLVTVSS
VL: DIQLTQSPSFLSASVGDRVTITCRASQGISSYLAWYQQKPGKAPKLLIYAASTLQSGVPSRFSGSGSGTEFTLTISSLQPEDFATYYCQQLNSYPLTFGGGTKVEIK
Regarding B2, the binding result is “no binding” with hu INSR(ECD)-muIgG1Fc and “binds” in experiment [1].

B3: L25H25 phage-displayed Fab (Fab, V domains shown)
VH: QVQLQESGPGLVKPSGTLSLTCAVSGGSISSSNWWSWVRQPPGKGLEWIGEIYHSGSTNYNPSLKSRVTISVDKSKNQFSLKLSSVTAADTAVYYCASSGYDAFDIWGQGTTVTVSS
VL: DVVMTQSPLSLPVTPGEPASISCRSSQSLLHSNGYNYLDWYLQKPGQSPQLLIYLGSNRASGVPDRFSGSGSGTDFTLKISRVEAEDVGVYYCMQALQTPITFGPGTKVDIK
Take B3: the binding result is “no binding” with hu INSR(ECD)-muIgG1Fc and “binds” in experiment [1].

B4: L32H32 phage-displayed Fab (Fab, V domains shown)
VH: B3 VH with S98R, S99A, G100S, Y101V, T112M
VL: not shown
On to B4, for which the binding result was “no binding” in the experiment with hu INSR(ECD)-muIgG1Fc and “binds” in experiment [1].

B5: L29H29 phage-displayed Fab (Fab, V domains shown)
VH: QVQLQESGPGLVKPSETLSLTCAVSGGSISSSNWWSWVRQPPGKGLEWIGEIYHSGSTNYNPSLKSRVTISVDKSKNQFSLKLSSVTAADTAVYYCARVGSGWYVDYWGQGTLVTVSS
VL: not shown
On to B5, for which the values for the binding result (with hu INSR(ECD)-muIgG1Fc; in experiment [1]) were “no binding” and “binds”, respectively.

B6: L7H7 phage-displayed Fab (Fab, V domains shown)
VH: B5 VH with E16G, V99F, G100W, S101D, G102Y, W103Y, Y104G, V105M, Y107V, L113T
VL: not shown
B6: the binding result with hu INSR(ECD)-muIgG1Fc is given as “no binding”; in experiment [1], “binds”.

B7: L3H3 phage-displayed Fab (Fab, V domains shown)
VH: B5 VH with E16G, R98K, V99N, G100L, S101A, G102A, W103G, Y104A, D106A
VL: not shown
For B7, the results for the binding result (in the experiment with hu INSR(ECD)-muIgG1Fc; in experiment [1]) were “no binding” and “binds”, respectively.

B8: L39H39 phage-displayed Fab (Fab, V domains shown)
VH: EVQLVESGPGLVKPSGTLSLTCAVSGGSISSSNWWSWVRQPPGKGLEWIGEIYHSGSTNYNPSLKSRVTISVDKSKNQFSLKLSSVTAADTAVYYCARLSFADPFDIWGQGTMVTVSS
VL: not shown
B8: the binding result in the experiment with hu INSR(ECD)-muIgG1Fc is “no binding”; in experiment [1], “binds”.

B9: L10H10 phage-displayed Fab (Fab, V domains shown)
VH: B8 VH with L99D, S100Y, F101D, A102I, D103F, P104G, F105M, I107V, M113T
VL: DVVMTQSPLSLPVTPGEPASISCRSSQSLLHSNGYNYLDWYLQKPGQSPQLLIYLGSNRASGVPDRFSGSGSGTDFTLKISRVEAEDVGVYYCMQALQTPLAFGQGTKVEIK
Regarding B9, the values for the binding result (in the experiment with hu INSR(ECD)-muIgG1Fc; in experiment [1]) were “no binding” and “binds”, respectively.

B10: L6H6 phage-displayed Fab (Fab, V domains shown)
VH: B8 VH with E1Q, V5Q, L99D, S100G, F101Q, A102L, P104A
VL: not shown
As to B10, the binding result with hu INSR(ECD)-muIgG1Fc was “no binding”; in experiment [1], “binds”.

B11: L36H36 phage-displayed Fab (Fab, V domains shown)
VH: QVQLQQWGAGLLKPSETLSLTCAVYGGSFSGYYWSWIRQPPGKGLEWIGEINHSGSTNYNPSLKSRVTISVDTSKNQFSLKLSSVTAADTAVYYCARVGYSSGRDVDYWGQGTLVTVSS
VL: NFMLTQPHSVSESPGKTVTISCTRSSGSIASNYVQWYQQRPGSSPTTVIYEDNQRPSGVPDRFSGSIDSSSNSASLTISGLKTEDEADYYCQSYDSSNVVFGGGTKLTVL
As to B11, the binding result with hu INSR(ECD)-muIgG1Fc is given as “no binding”; in experiment [1], “binds”.

B12: L30H30 phage-displayed Fab (Fab, V domains shown)
VH: QVQLQESGPGLVKPSGTLSLTCAVSGGSISSSNWWSWVRQPPGKGLEWIGEIYHSGSTNYNPSLKSRVTISVDKSKNQFSLKLSSVTAADTAVYYCARVSGYYYYGMDVWGQGTTVTVSS
VL: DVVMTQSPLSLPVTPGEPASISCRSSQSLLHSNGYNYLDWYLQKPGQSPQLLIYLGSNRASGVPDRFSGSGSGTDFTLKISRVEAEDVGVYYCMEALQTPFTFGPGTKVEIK
With B12, the values for the binding result (with hu INSR(ECD)-muIgG1Fc; in experiment [1]) were “no binding” and “binds”, respectively.

B13: L37H37 phage-displayed Fab (Fab, V domains shown)
VH: B12 VH with Q1E, Q5V, V38I, V99D, G101S, Y102S, Y103W
VL: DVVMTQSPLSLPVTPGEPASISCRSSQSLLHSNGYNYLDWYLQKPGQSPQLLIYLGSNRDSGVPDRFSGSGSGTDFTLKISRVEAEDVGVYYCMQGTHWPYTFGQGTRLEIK
B13: the values for the binding result (with hu INSR(ECD)-muIgG1Fc; in experiment [1]) were “no binding” and “binds”, respectively.

B14: L40H40 phage-displayed Fab (Fab, V domains shown)
VH: QVQLVQSGAEVKKPGSSVKVSCKASGGTFSSYAISWVRQAPGQGLEWMGRIIPILGIANYAQKFQGRVTITADKSTSTAYMELSSLRSEDTAVYYCAYGSGSYYDYYYMDVWGKGTTVTVSS
VL: ETTLTQSPATLSLSPGQRATLSCRASQSVYNYLAWYQQKPGQAPRLLIYDASRRATGIPARFSGSGSGTDFTLTISSLEPEDFAVYYCQQRNNWPLTFGGGTKVEIK
As for B14, the binding result is recorded as “no binding” with hu INSR(ECD)-muIgG1Fc and “binds” in experiment [1].

B15: L38H38 phage-displayed Fab (Fab, V domains shown)
VH: EVQLVESGPGLVKPSETLSLTCAVSGGSISSSNWWSWVRQPPGKGLEWIGEIYHSGSTNYNPSLKSRVTISVDKSKNQFSLKLSSVTAADTAVYYCARSTWSLDYWGQGTLVTVSS
VL: not shown
For the molecule B15, the binding result with hu INSR(ECD)-muIgG1Fc is listed as “no binding”; in experiment [1], “binds”.

B16: L34H34 phage-displayed Fab (Fab, V domains shown)
VH: QVQLQQSGPGLVKPSGTLSLTCAVSGGSISSSNWWSWVRQPPGKGLEWIGEIYHSGSTNYNPSLKSRVTISVDKSKNQFSLKLSSVTPEDTAVYYCARDHGPFDYWGRGTLVTVSS
VL: not shown
Turning to B16, the binding result was “no binding” with hu INSR(ECD)-muIgG1Fc and “binds” in experiment [1].

B17: L14H14 phage-displayed Fab (Fab, V domains shown)
VH: QVQLQESGPGLVKPSGTLSLTCAVSGGSISSSNWWSWVRQPPGKGLEWIGEIYHSGSTNYNPSLKSRVTISVDKSKNQFSLKLSSVTAADTAVYYCARGLGDSSGYILWGQGTMVTVSS
VL: not shown
As to B17, the binding result was “no binding” with hu INSR(ECD)-muIgG1Fc and “binds” in experiment [1].

B18: L15H15 phage-displayed Fab (Fab, V domains shown)
VH: B17 VH
VL: DVVMTQSPLSLPVTPGEPASISCRSSQSLLHSNGYNYLDWYLQKPGQSPQLLIYLGSYRASGVPDRFSASGSGTDFTLKISRVEAEDVGVYYCMQALQTPITFGQGTRLEIK
As for B18, the results for the binding result (with hu INSR(ECD)-muIgG1Fc; in experiment [1]) were “no binding” and “binds”, respectively.

B19: L33H33 phage-displayed Fab (Fab, V domains shown)
VH: B17 VH
VL: EIVLTQSPLSLPVTPGEPASISCRSSQSLLHSNGYNYLDWYLQKPGQSPQLLMYLVSNRASGVPERFSGSGSGTDFTLKISRVEAEDVGVYYCMQTLQTPLSFGQGTKLEIK
With B19, the binding result was “no binding” with hu INSR(ECD)-muIgG1Fc and “binds” in experiment [1].

B20: L49H49 phage-displayed Fab (Fab, V domains shown)
VH: QVQLQQWGAGLLKPSETLSLTCAVYGGSFSGYYWSWIRQPPGKGLEWIGEINHSGSTNYNPSLKSRVTISVDTSKNQFSLKLSSVTAADTAVYYCARVGYSHGEEVLDVWGKGTTVTVSS
VL: NFMLTQPHSVSESPGKTVSISCTRNSGSIASNFVQWYQQRPGSAPTIVIYEDNQRPSAVPTRFSGSIDRSSNSASLTISGLTTEDEADYYCQSYDSANVIFGGGTKLTVL
B20: the binding result with hu INSR(ECD)-muIgG1Fc is “no binding”; in experiment [1], “binds”.

B21: L28H28 phage-displayed Fab (Fab, V domains shown)
VH: QVQLQESGPGLVKPSETLSLTCTVSGGSIRNYYWSWIRQPPGKGLEWIGYISDSGNTNYNPSLKSRVTISVDTSKNQFSLKLTSVTATDTAAYFCARHRSSWAWYFDLWGRGTLVTVSS
VL: SYVLTQPPSVSVSPGQTASITCSGDKLGDKYVGWYQQKAGQAPVLVIYQDNKRPSGIPERFSGSNSGNTASLTISGTQAMDEADYYCQAWDSGTVFGGGTKLTVL
Consider B21, for which the figures for the binding result (with hu INSR(ECD)-muIgG1Fc; in experiment [1]) were “no binding” and “binds”, respectively.
